Data: publication PMC12337650 (iScience, 2025)

Molecular target: the molecule itself
Test: cross-linking

B1: hIRE1α(CD) (residues 469–977) (domain or fragment)
chain: HQQQQLQHQQFQKELEKIQLLQQQQQQLPFHPPGDTAQDGELLDTSGPYSESSGTSSPSTSPRASNHSLCSGSSASKAGSSPSLEQDDGDEETSVVIVGKISFCPKDVLGHGAEGTIVYRGMFDNRDVAVKRILPECFSFADREVQLLRESDEHPNVIRYFCTEKDRQFQYIAIELCAATLQEYVEQKDFAHLGLEPITLLQQTTSGLAHLHSLNIVHRDLKPHNILISMPNAHGKIKAMISDFGLCKKLAVGRHSFSRRSGVPGTEGWIAPEMLSEDCKENPTYTVDIFSAGCVFYYVISEGSHPFGKSLQRQANILLGACSLDCLHPEKHEDVIARELIEKMIAMDPQKRPSAKHVLKHPFFWSLEKQLQFFQDVSDRIEKESLDGPIVKQLERGGRAVVKMDWRENITVPLQTDLRKFRTYKGGSVRDLLRAMRNKKHHYRELPAEVRETLGSLPDDFVCYFTSRFPHLLAHTYRAMELCSHERLFQPYYFHEPPEPQPPVTPDAL
binding result: binds
